Measurements reported in the DeepSol protein solubility set.

Test: soluble on expression in E. coli; label from the status in PepcDB or PDB records

Row | Sequence | soluble on expression in E. coli
1 | MAERAALEELVKLQGERVRGLKQQKASAELIEEEVAKLLKLKAQLGPDESKQKFVLKTPKGTRDYSPRQMAVREKVFDVIIRCFKRHGAEVIDTPVFELKETLMGKYGEDSKLIYDLKDQGGELLSLRYDLTVPFARYLAMNKLTNIKRYHIAKVYRRDNPAMTRGRYREFYQCDFDIAGNFDPMIPDAECLKIMCEILSSLQIGDFLVKVNDRRILDGMFAICGVSDSKFRTICSSVDKLDKVSWEEVKNEMVGEKGLAPEVADRIGDYVQQHGGVSLVEQLLQDPKLSQNKQALEGLGDLKLLFEYLTLFGIDDKISFDLSLARGLDYYTGVIYEAVLLQTPAQAGEEPLGVGSVAAGGRYDGLVGMFDPKGRKVPCVGLSIGVERIFSIVEQRLEALEEKIRTTETQVLVASAQKKLLEERLKLVSELWDAGIKAELLYKKNPKLLNQLQYCEEAGIPLVAIIGEQELKDGVIKLRSVTSREEVDVRREDLVEEIKRRTGQPLCIC | soluble
2 | MAETNKGIEEEVASAFVNHYYHLFDNDRSSLSSLYNPTSLLTFEGQTIYGVDNISNKLKQLPFDQCHHLISTVDSQPSSMAGGCGGILVFVSGSIQLHGEDHPLRFSQVYLLSICNRFEGFIWLKQS | not soluble
3 | MAETVESSLAKSHIEGSFTNVWKDDKTLDWYANYEGILWKATGVVVITGDETQVYAIWVPVGLAIPENEGGGSEGGGSEGGGSEGGGTKPPEYGDTPIPGYIYINPLDGTYPPGTEQNPANPNPSLEESHPLNTFMFQGNRFRNRQGALTVYTGTVTQGTDPVKTYYQYTPVSSKAMYDAYWNGKFRDVAFHSGFNEDPLVAEYQGQLSYLPQPPVNAPSGHHHHHH | soluble
4 | MAFEGLADRLQQTMQKIRGKGKVSEADVKEMMREVRLALLEADVNFKVVKDFVKRVSERAVGQDVMKSLTPGQQVIKVVQEELTELMGGEQSKIAIANKPPTVIMMVGLQGAGKTTTTGKLANLLRKKHNRKPMLVAADIYRPAAIKQLETLGKQLDMPVFSLGDQVSPVEIAKQAIAKAKEDHHDYVLIDTAGHLHIDEELMDELAKVKEVAKPDEIFLVVDAMTGQDAVNVAQSFHEQLGLTGVVLTKLDGDTRGGAALSIKAVTNTPIKFAGMGEKLDALEAFHPERMASRILGMGDVLTLIEKAQATVDEEKAKELEQKMRTLSFTLDDFLEQLGQVRQLGPLDELLGMLPGANKIKGLKNAQVDEKQIGHIEAIIRSMTKLEREQPEIINASRKKRIAKGSGTTVQEINRLIKQFDDMKKMMKTMTGMQKGKKKGLGGLKFPFM | not soluble
5 | MAFIGRDDDLKQLQECFTERRAQLVFVYGRRRVGKTETLIQLAKDKETLFFAAQNATKDEQLASFSRLMFEAGAPGKDYLSQYPSWERALTELTRLPEPSDGGRRLVIFDEFPYLVKSDPSLPSVLQNLWDHTLRHANLMIVICGSAMSFIEKELLGEKSPLYGRATGILKMLPMPYWDAAQFFPNYSGEDKALAYAILGGIPRYLEEFDPDETIDANVKRHILRRIAPLYSEVEFLLHEELRETAKYNSVIRAIALGATSLNEIATHTMMANATVSSYLANLMELGIVEREFPVTAKPKERAKGSRGLYQLSDNFFRFWYSFVFPYRSELERGDVEGVYERHIKPVLHDFAGKPFEGLCREWMWRESAAGRLPFRARAVGRWWDRQDEIDVMAVDNASDAAIVGECKFRNAPVDRSVLNLLRDRAARTGIGQRTYLLFSLGGFDQSLVDDAAASQSDVQLVGIDELFHELEHHHHHH | not soluble
6 | MAGAGMYGDCSLAATLSYGAVLEPYLHPKPGGVTPYASEGGKSFGDFVLHATLSSRLLAWACLKAWKNGPIGVIASVKERYLREVVPRFKGNIAYGTFMLMAPLAVAIALSKSSEPEELVTTARDTIYCCTGRRESLLHYKILRRLSPSHLGRYRGELPDVASGGERDIPPYPLLLKLNSWDMVHRELAKGYPITLEAYRHSLNRVKEGRSVEEALLEALLKVLAEHGDTLIFQKYGGRAFKMAREEARVAFHVSERWGVRHAITWLERLWRGREWNPGAALDIVAVASGLLLITISRDASS | not soluble
7 | MAGDPMIRKPAVAGYFYPSNRNELLSLISSFHVQQSEVSCQPIGVVVPHAGIVYSGRTAMYSYNALRNSSIRDFIIIGPNHRPMTPYASIFPSGSWETPLGNAIINEELASELYKNSQYIVKDEESHSVEHSIEVQIPFLQYMFGNSFTFVPVILGDQEKVVANDIASALMRLSKPYILIASSDFTHYERSDIVERKDMDLISRIVDLDIDGFYDTIERENVTACGYGAIAILMIIAKKIGAKISLLNHSNSGDVTNDYDEVVGYSSIVACRQILEHHHHHH | not soluble
8 | MAGDPMKSPCILLIIVCTLSLTGCASTKQADSDSSLGKAQQTLDSLYQHYSAKDSYLLRENYPFNEQYKVTYLASENQTNMPNQFSYLWPYSGTFSAVNSLLEATHDKKYQQLLEKQVLPGLEEYFDTERTPIAYSSYIRTAPTSDRFYDDNIWVGIDFIDIYQITKEKKYLDKAQLIWNFIESGTDSLLGDGIYWCEQKKESKNTCSNAPGSVFALKLFKATNDSLYFKRGKELYKWTQKNLQDSTDYLYFDNIRLDGKIGKAKFAYNSGQMMQSAALLYQLTKNPDYLKDAQSIAKECYNYFFTDFTTDTGESLKMLKQGNIWFTAVMLRGFIELYQLDQNKTFIDAFNQCLSYAWDNARDENGLFSTDLTGNNNNEKKWLLTQAAMVEMYSRLATIQLEHHHHHH | soluble
9 | MAGDPMNDVSKASLPKAIFLMGPTASGKTALAIELRKVLPVELISVDSALIYRGMDIGTAKPNADELKAAPHRLLDIRDPSQAYSAADFRRDALAQMAEITAAGRIPLLVGGTMLYFKALLEGLSPLPSADPEVRSRIEQQAAELGWEALHQQLQEIDPVAAARIHPNDPQRLSRALEVFFISGKTLTELTQTSGDALPYQVHQFAIAPASRELLHQRIELRFHQMLASGFEAEVRALFARGDLHTDLPSIRCVGYRQMWSYIEGEISYDEMVYRGVCATRQLAKRQMTWLRGWEGVRWLDSENPDRARKEVLQVVGAIADLEHHHHHH | soluble
10 | MAGDPMNVEGMATGGIHMELHCPQCQHVLDQDNGHARCRSCGEFIEMKALCPDCHQPLQVLKACGAVDYFCQHGHGLISKKRVEFVLALEHHHHHH | not soluble
11 | MAGETDLQKILRESNDQFTAQMFSEVVKANPGQNVVLSAFSVLPPLGQLALASVGESHDELLRALALPNDNVTKDVFADLNRGVRAVKGVDLKMASKIYVAKGLELNDDFAAVSRDVFGSEVQNVDFVKSVEAAGAINKWVEDQTNNRIKNLVDPDALDETTRSVLVNAIYFKGSWKDKFVKERTMDRDFHVSKDKTIKVPTMIGKKDVRYADVPELDAKMIEMSYEGDQASMIIILPNQVDGITALEQKLKDPKALSRAEERLYNTEVEITLPKFKIETTTDLKEVLSNMNIKKLFTPGAARLENLLKTKESLTVDAAIQKAFIEVNEEGAEAAAANAFGIVPKSLILYPEVHIDRPFYFELKIDGIPMFNGKVIEP | soluble
12 | MAGFAVNLKVVLNSDAVFGTACKRGGGAPETCLLEDMGLEREDIEPFGYEKDKDREILVWHTKTSTPNIVKSNKNSTKKAPPPDTFGYFVEA | not soluble
13 | MAGLKYEDAGVNIEAGNQAVERMKQHVKKTFTQDVLTGLGSFGSLYSLKNIINNYDDPVLVQSIDGVGTKTKVAVMCGKFENLGYDLFSAATNDIVVMGAKPITFLDYVAHDKLDPAIMEELVKGMSKACAECGVSLVGGETAEMPGVYQAGEIDMVGVITGIVDRKRIINGENIKEGDIVFGLSSSGLHTNGYSFARKLFFDVAGNKHTDTYPELEGKTIGDVLLEPHINYTNIIHDFLDNGVDIKGMAHITGGGFIENIPRVLPQGLGAQIDKDSFATPAIFKLMQRIGDISEFEMYRSFNMGIGMTIIASQDQFDKMQELAKKHTNTKLYQIGKITNSGKVEII | soluble
14 | MAGNSIGQFFRVTTFGESHGIALGCIIDGVPPGIPITEADIQLDLDRRRPGTSRYTTQRRELDQVRILSGVFEGVTTGTSIGLMIENTDQRSQDYSAIKDVFRPGHADYTYEQKYGVRDYRGGGRSSARETAMRVAAGAIAKKYLAQKFGVQVRGYLAQMGDVSCDLLDWDLVEQNPFFCPDASKLEPLDALMRELKKAGDSIGAKITVVAENVPVGLGEPVFDRLDADLAHALMSINAVKGVEIGDGFAVVTKRGSENRDEITPQGFQSNHAGGILGGISSGQPVVAHIALKPTSSIMVPGQTINRQGEAVEMVTRGRHDPCVGIRAVPIAEAMMAIVLMDHLLRQRAQCGDVASDVPRW | not soluble
15 | MAGQISPTRSALLASKASLKTANGGADLLKRKRDALIGEFFALVKDALAAREQLSSVSKGAYTSLFGAKAWDSPEAVESLSLAGTGDYAVDMQIESIYGVKVPKINIPERAAQADFSPINVGARTIQASNDFGGVLEAIVKVAATETKLRRIGEEIKKTSRRVNALEQVVIPGIHDDIRFIRSVLDQREREAGYTQKKIKAKIEGKNKEAREAAAATSHGSAADAAALEHHHHHH | not soluble
16 | MAGQLTFKRELEKVFEKELKKRIERIGKTPLSPLSLILFTRIAELSAIENGYIRPTEYEMREIFAARTTYSEGLLSTLKDIIYSHFLRSNLGEHLEDFIYTLQRIEDIQSKIDELILREMREVSLRKVYHELLRFLLDMLCDKDMVRFD | not soluble
17 | MAGRVKWVTDIEKSVLINNFEKRGWIQVTENEDWNFYWMSVQTIRNVFSVETGYRLSDDQIVNHFPNHYELTRKDLMVKNIKRYRKELEKEGSPLAEKDENGKYLYLDFVPVTYMLPADYNLFVEEFRKSPSSTWIMKPCGKAQGKGIFLINKLSQIKKWSRDSKTSSFVSQSTKEAYVISVYINNPLLIGGRKFDLRLYVLVSTYRPLRCYMYKLGFCRFCTVKYTPSTSELDNMFVHLTNVAIQKHGEDYNHIHGGKWTVNNLRLYLESTRGREVTSKLFDEIHWIIVQSLKAVAPVMNNDKHCFECYGYDIIIDDKLKPWLIEVNASPSLTSSTANDRILKYNLINDTLNIAVPNGEIPDCKWNKSPPKEVLGNYEILYDEELAQGDGAERELRNRPGQPVGPRAGRSRDSGRSVLTTWK | not soluble
18 | MAGSKKSNRREEILQALAQMLESAEGASRITTAKLAKQVGVSEAALYRHFPSKARMFEGLIEFIEEALMTRINRILDDEKDTLERIRMVMHLILAFSERNPGLTRILSGHALMFENERLRERINQLFERIETQLRQILRERKIREGKSFPVEERILAAQILGQVEGSLNRFVRSDFKYQPTANFDEYWALLSAQIK | not soluble
19 | MAHDWEKVLLSPDTPAESALRVLDDSGLRLVLVVDEQRRLLGTLTDGDVRRALLRHVNFMTAAVADIMHREPRVALASASREQLRHLMEQHSLLHIPLLDHDDRVVGLETYQEVLQRPRRDNWVFLMAGGFGKRLRPLTDNCPKPMLLVGGKPMLQTILEGFIAAGFHRFYISVHYLPETIKNYFGDGSKWGVTIVYIEEDQPLGTGGALGLLPGTDDLPIIMMNGDILTRLDFNALLDFHEKHAADLTLCVREYDVQIPFGVVEGNDVTVTSIVEKPKHRFFVNAGIYVVTPQAIARVLPSMRVDMPDLIKQIIADQRNVSMFPIREYWLDIGRPEDFDVAQTSIAQLEHHHHHH | not soluble
20 | MAHHHHHHGSRFLIRLVPEDKDRAFKVPYNHQYYLQGLIYNAIKSSNPKLATYLHEVKGPKLFTYSLFMAEKREHPKGLPYFLGYKKGFFYFSTCVPEIAEALVNGLLMNPEVRLWDERFYLHEIKVLREPKKFNGSTFVTLSPIAVTVVRKGKSYDVPPMEKEFYSIIKDDLQDKYVMAYGDKPPSEFEMEVLIAKPKRFRIKPGIYQTAWHLVFRAYGNDDLLKVGYEVGFGEKNSLGFGMVKVEGNKTTKEAEEQEKITFNSREELKTGV | soluble
21 | MAHHHHHHMAAVTPPTSRALPLEATAIFPPQGSRELDRGAPPLESLSCTKRATAAQHIRGGEGRGAAPCLYIQTVSGSLLPVVLSPSPTHSPIPQRCEQYRDAYANVTICIDTEERSIQRLETFGGGTTITAILCKRYFPPFQ | not soluble
